*1 amine or outer side, *2 acyl side, *3 side chain or, on linkers, in order; H or OH if unused. Side-chain parts run from the residue outwards. The star is where a group is joined. C20 diacid = O=C(O)CCCCCCCCCCCCCCCCCCC(=O)*; C18 diacid = O=C(O)CCCCCCCCCCCCCCCCC(=O)*; C16 diacid = O=C(O)CCCCCCCCCCCCCCC(=O)*; γGlu = O=C(O)[C@H](CCC(=O)[*:2])N[*:1]
T1: human calcitonin receptor (a) (human, UniProt P30988 25-474)
T1 sequence (looked up): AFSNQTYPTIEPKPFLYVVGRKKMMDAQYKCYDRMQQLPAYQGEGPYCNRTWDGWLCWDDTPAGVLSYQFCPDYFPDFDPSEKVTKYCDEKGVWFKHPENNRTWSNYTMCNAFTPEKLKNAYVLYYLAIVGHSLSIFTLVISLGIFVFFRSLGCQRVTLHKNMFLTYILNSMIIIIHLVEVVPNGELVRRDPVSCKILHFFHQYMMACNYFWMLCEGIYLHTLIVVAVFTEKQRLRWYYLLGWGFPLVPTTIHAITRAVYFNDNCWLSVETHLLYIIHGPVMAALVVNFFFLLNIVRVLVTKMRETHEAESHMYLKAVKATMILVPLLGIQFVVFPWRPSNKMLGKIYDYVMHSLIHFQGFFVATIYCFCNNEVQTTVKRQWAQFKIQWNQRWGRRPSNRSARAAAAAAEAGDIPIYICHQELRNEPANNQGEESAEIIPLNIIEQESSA

T2: human amylin-3(a) receptor (human, UniProt P30988 25-474; O60896 24-148)
T2 sequence (looked up) 1: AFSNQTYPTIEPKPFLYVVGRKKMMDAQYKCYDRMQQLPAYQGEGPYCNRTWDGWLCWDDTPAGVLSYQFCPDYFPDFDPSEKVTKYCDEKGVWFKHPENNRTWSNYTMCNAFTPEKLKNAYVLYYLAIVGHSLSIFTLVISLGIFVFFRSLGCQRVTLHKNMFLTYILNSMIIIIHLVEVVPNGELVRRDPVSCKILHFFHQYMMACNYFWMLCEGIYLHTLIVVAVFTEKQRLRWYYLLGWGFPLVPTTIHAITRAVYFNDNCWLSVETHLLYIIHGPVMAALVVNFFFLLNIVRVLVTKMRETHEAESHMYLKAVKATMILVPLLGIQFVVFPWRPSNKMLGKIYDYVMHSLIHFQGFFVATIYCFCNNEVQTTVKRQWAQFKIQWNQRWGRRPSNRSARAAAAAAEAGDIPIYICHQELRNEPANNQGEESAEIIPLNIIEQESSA
T2 sequence (looked up) 2: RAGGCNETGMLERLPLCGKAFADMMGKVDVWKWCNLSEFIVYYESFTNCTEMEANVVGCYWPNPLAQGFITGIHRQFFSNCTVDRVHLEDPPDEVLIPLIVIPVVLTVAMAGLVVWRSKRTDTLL


Legend:
[1] = target: T1, human calcitonin receptor (a); assay: cell-based or functional assay
[2] = target: T2, human amylin-3(a) receptor; assay: cell-based or functional assay

| Binder | hCalcR potency, EC50 (pM); CRE-luciferase reporter in BHK cells [1] [pM] | hAmyR3 potency, EC50 (pM); CRE-luciferase reporter in BHK cells [2] [pM] |
| --- | --- | --- |
| Ac-ASQLSTAQTQRLAEFLHHSSDNFGK([γGlu-C18 diacid])ILPPTDVGSNTP-NH2 (SMILES CC[C@H](C)[C@H](NC(=O)[C@H](CCCCNC(=O)CC[C@H](NC(=O)CCCCCCCCCCCCCCCCC(=O)O)C(=O)O)NC(=O)CNC(=O)[C@H](Cc1ccccc1)NC(=O)[C@H](CC(N)=O)NC(=O)[C@H](CC(=O)O)NC(=O)[C@H](CO)NC(=O)[C@H](CO)NC(=O)[C@H](Cc1c[nH]cn1)NC(=O)[C@H](Cc1c[nH]cn1)NC(=O)[C@H](CC(C)C)NC(=O)[C@H](Cc1ccccc1)NC(=O)[C@H](CCC(=O)O)NC(=O)[C@H](C)NC(=O)[C@H](CC(C)C)NC(=O)[C@H](CCCNC(=N)N)NC(=O)[C@H](CCC(N)=O)NC(=O)[C@@H](NC(=O)[C@H](CCC(N)=O)NC(=O)[C@H](C)NC(=O)[C@@H](NC(=O)[C@H](CO)NC(=O)[C@H](CC(C)C)NC(=O)[C@H](CCC(N)=O)NC(=O)[C@H](CO)NC(=O)[C@H](C)NC(C)=O)[C@@H](C)O)[C@@H](C)O)C(=O)N[C@@H](CC(C)C)C(=O)N1CCC[C@H]1C(=O)N1CCC[C@H]1C(=O)N[C@H](C(=O)N[C@@H](CC(=O)O)C(=O)N[C@H](C(=O)NCC(=O)N[C@@H](CO)C(=O)N[C@@H](CC(N)=O)C(=O)N[C@H](C(=O)N1CCC[C@H]1C(N)=O)[C@@H](C)O)C(C)C)[C@@H](C)O) | 1.19 | 1.38 |
| {C18 diacid-γGlu}-AGELSTAQTARLAEFLHHFGPILPPTDVGSETP-NH2 (SMILES CC[C@H](C)[C@H](NC(=O)[C@@H]1CCCN1C(=O)CNC(=O)[C@H](Cc1ccccc1)NC(=O)[C@H](Cc1c[nH]cn1)NC(=O)[C@H](Cc1c[nH]cn1)NC(=O)[C@H](CC(C)C)NC(=O)[C@H](Cc1ccccc1)NC(=O)[C@H](CCC(=O)O)NC(=O)[C@H](C)NC(=O)[C@H](CC(C)C)NC(=O)[C@H](CCCNC(=N)N)NC(=O)[C@H](C)NC(=O)[C@@H](NC(=O)[C@H](CCC(N)=O)NC(=O)[C@H](C)NC(=O)[C@@H](NC(=O)[C@H](CO)NC(=O)[C@H](CC(C)C)NC(=O)[C@H](CCC(=O)O)NC(=O)CNC(=O)[C@H](C)NC(=O)CC[C@H](NC(=O)CCCCCCCCCCCCCCCCC(=O)O)C(=O)O)[C@@H](C)O)[C@@H](C)O)C(=O)N[C@@H](CC(C)C)C(=O)N1CCC[C@H]1C(=O)N1CCC[C@H]1C(=O)N[C@H](C(=O)N[C@@H](CC(=O)O)C(=O)N[C@H](C(=O)NCC(=O)N[C@@H](CO)C(=O)N[C@@H](CCC(=O)O)C(=O)N[C@H](C(=O)N1CCC[C@H]1C(N)=O)[C@@H](C)O)C(C)C)[C@@H](C)O) | 1.03 | 1.25 |
| {C20 diacid-γGlu}-ASHLSTAQTQRLAEFLHHSSDNFGPILPPTDVGSNTP-NH2 (SMILES CC[C@H](C)[C@H](NC(=O)[C@@H]1CCCN1C(=O)CNC(=O)[C@H](Cc1ccccc1)NC(=O)[C@H](CC(N)=O)NC(=O)[C@H](CC(=O)O)NC(=O)[C@H](CO)NC(=O)[C@H](CO)NC(=O)[C@H](Cc1c[nH]cn1)NC(=O)[C@H](Cc1c[nH]cn1)NC(=O)[C@H](CC(C)C)NC(=O)[C@H](Cc1ccccc1)NC(=O)[C@H](CCC(=O)O)NC(=O)[C@H](C)NC(=O)[C@H](CC(C)C)NC(=O)[C@H](CCCNC(=N)N)NC(=O)[C@H](CCC(N)=O)NC(=O)[C@@H](NC(=O)[C@H](CCC(N)=O)NC(=O)[C@H](C)NC(=O)[C@@H](NC(=O)[C@H](CO)NC(=O)[C@H](CC(C)C)NC(=O)[C@H](Cc1c[nH]cn1)NC(=O)[C@H](CO)NC(=O)[C@H](C)NC(=O)CC[C@H](NC(=O)CCCCCCCCCCCCCCCCCCC(=O)O)C(=O)O)[C@@H](C)O)[C@@H](C)O)C(=O)N[C@@H](CC(C)C)C(=O)N1CCC[C@H]1C(=O)N1CCC[C@H]1C(=O)N[C@H](C(=O)N[C@@H](CC(=O)O)C(=O)N[C@H](C(=O)NCC(=O)N[C@@H](CO)C(=O)N[C@@H](CC(N)=O)C(=O)N[C@H](C(=O)N1CCC[C@H]1C(N)=O)[C@@H](C)O)C(C)C)[C@@H](C)O) | 1.3 | 0.9 |
| {C18 diacid-γGlu-γGlu}-ASHLSTAQTARLAEFLHHFGPILPPTDVGSETP-NH2 (SMILES CC[C@H](C)[C@H](NC(=O)[C@@H]1CCCN1C(=O)CNC(=O)[C@H](Cc1ccccc1)NC(=O)[C@H](Cc1c[nH]cn1)NC(=O)[C@H](Cc1c[nH]cn1)NC(=O)[C@H](CC(C)C)NC(=O)[C@H](Cc1ccccc1)NC(=O)[C@H](CCC(=O)O)NC(=O)[C@H](C)NC(=O)[C@H](CC(C)C)NC(=O)[C@H](CCCNC(=N)N)NC(=O)[C@H](C)NC(=O)[C@@H](NC(=O)[C@H](CCC(N)=O)NC(=O)[C@H](C)NC(=O)[C@@H](NC(=O)[C@H](CO)NC(=O)[C@H](CC(C)C)NC(=O)[C@H](Cc1c[nH]cn1)NC(=O)[C@H](CO)NC(=O)[C@H](C)NC(=O)CC[C@H](NC(=O)CC[C@H](NC(=O)CCCCCCCCCCCCCCCCC(=O)O)C(=O)O)C(=O)O)[C@@H](C)O)[C@@H](C)O)C(=O)N[C@@H](CC(C)C)C(=O)N1CCC[C@H]1C(=O)N1CCC[C@H]1C(=O)N[C@H](C(=O)N[C@@H](CC(=O)O)C(=O)N[C@H](C(=O)NCC(=O)N[C@@H](CO)C(=O)N[C@@H](CCC(=O)O)C(=O)N[C@H](C(=O)N1CCC[C@H]1C(N)=O)[C@@H](C)O)C(C)C)[C@@H](C)O) | 1.15 | 1.11 |

The next lines start with the values.

| hCalcR potency, EC50 (pM); CRE-luciferase reporter in BHK cells [1] [pM] | hAmyR3 potency, EC50 (pM); CRE-luciferase reporter in BHK cells [2] [pM] | Binder |
| --- | --- | --- |
| 1 | 1.5 | Ac-ASQLSTAQTQRLAEFLHHSSDPFGK([γGlu-C18 diacid])IPSSTDVGPDTP-NH2 (SMILES CC[C@H](C)[C@H](NC(=O)[C@H](CCCCNC(=O)CC[C@H](NC(=O)CCCCCCCCCCCCCCCCC(=O)O)C(=O)O)NC(=O)CNC(=O)[C@H](Cc1ccccc1)NC(=O)[C@@H]1CCCN1C(=O)[C@H](CC(=O)O)NC(=O)[C@H](CO)NC(=O)[C@H](CO)NC(=O)[C@H](Cc1c[nH]cn1)NC(=O)[C@H](Cc1c[nH]cn1)NC(=O)[C@H](CC(C)C)NC(=O)[C@H](Cc1ccccc1)NC(=O)[C@H](CCC(=O)O)NC(=O)[C@H](C)NC(=O)[C@H](CC(C)C)NC(=O)[C@H](CCCNC(=N)N)NC(=O)[C@H](CCC(N)=O)NC(=O)[C@@H](NC(=O)[C@H](CCC(N)=O)NC(=O)[C@H](C)NC(=O)[C@@H](NC(=O)[C@H](CO)NC(=O)[C@H](CC(C)C)NC(=O)[C@H](CCC(N)=O)NC(=O)[C@H](CO)NC(=O)[C@H](C)NC(C)=O)[C@@H](C)O)[C@@H](C)O)C(=O)N1CCC[C@H]1C(=O)N[C@@H](CO)C(=O)N[C@@H](CO)C(=O)N[C@H](C(=O)N[C@@H](CC(=O)O)C(=O)N[C@H](C(=O)NCC(=O)N1CCC[C@H]1C(=O)N[C@@H](CC(=O)O)C(=O)N[C@H](C(=O)N1CCC[C@H]1C(N)=O)[C@@H](C)O)C(C)C)[C@@H](C)O) |
| 1.5 | 1.62 | {C16 diacid-γGlu}-ASHLSTAQTARLAEFLHHSSDNFGPILPPTDVGSNTP-NH2 (SMILES CC[C@H](C)[C@H](NC(=O)[C@@H]1CCCN1C(=O)CNC(=O)[C@H](Cc1ccccc1)NC(=O)[C@H](CC(N)=O)NC(=O)[C@H](CC(=O)O)NC(=O)[C@H](CO)NC(=O)[C@H](CO)NC(=O)[C@H](Cc1c[nH]cn1)NC(=O)[C@H](Cc1c[nH]cn1)NC(=O)[C@H](CC(C)C)NC(=O)[C@H](Cc1ccccc1)NC(=O)[C@H](CCC(=O)O)NC(=O)[C@H](C)NC(=O)[C@H](CC(C)C)NC(=O)[C@H](CCCNC(=N)N)NC(=O)[C@H](C)NC(=O)[C@@H](NC(=O)[C@H](CCC(N)=O)NC(=O)[C@H](C)NC(=O)[C@@H](NC(=O)[C@H](CO)NC(=O)[C@H](CC(C)C)NC(=O)[C@H](Cc1c[nH]cn1)NC(=O)[C@H](CO)NC(=O)[C@H](C)NC(=O)CC[C@H](NC(=O)CCCCCCCCCCCCCCC(=O)O)C(=O)O)[C@@H](C)O)[C@@H](C)O)C(=O)N[C@@H](CC(C)C)C(=O)N1CCC[C@H]1C(=O)N1CCC[C@H]1C(=O)N[C@H](C(=O)N[C@@H](CC(=O)O)C(=O)N[C@H](C(=O)NCC(=O)N[C@@H](CO)C(=O)N[C@@H](CC(N)=O)C(=O)N[C@H](C(=O)N1CCC[C@H]1C(N)=O)[C@@H](C)O)C(C)C)[C@@H](C)O) |
